The results in this text go back to article PMC10760972.

Where two headings read alike, the source gives them in different places.

One data set has as its target AURKB (UniProt Q96GD4). Put plainly: co-precipitation from cells, immunoblot. The following applies: reference: NSFL1C wild type; sites S140.

As to “NSFL1C (from UniProt Q9UNZ2) NSFL1C-S140A”, the “binding against the reference” value with AURKB is on record as “weaker”.

With NSFL1C: NSFL1C-S140A, the other entry (phosphorylation at S140) is “abolishes”.

In the case of AURKB: AURKB-3KR (K31R/K56R/K85R), the enzymatic_activity result is on record as “decreases” (ubiquitination at K31), “decreases” (ubiquitination at K56) and “decreases” (ubiquitination at K85). Also, the localisation_or_trafficking entry runs as follows: (ubiquitination at K31) “decreases”; (ubiquitination at K56) “decreases”; (ubiquitination at K85) “decreases”.
